The target of one assay is T1, O5-bP.
T1 chain: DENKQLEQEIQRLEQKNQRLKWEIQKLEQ
In words: two-hybrid library CCNG1.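 Also: natural log of median RNA to DNA barcode read ratio; higher means stronger binding.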

A further assay has as its target T2, O6-bP.
T2 chain: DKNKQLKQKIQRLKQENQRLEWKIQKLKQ
The assay can be described thus: two-hybrid library CCNG1.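 Also: natural log of median RNA to DNA barcode read ratio; higher means stronger binding.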

In the next assay the target is T3, O7-bP.
T3 chain: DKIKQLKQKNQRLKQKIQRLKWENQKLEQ
The assay can be described thus: two-hybrid library CCNG1.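 Also: natural log of median RNA to DNA barcode read ratio; higher means stronger binding.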

A further assay addresses T4, O8-bP.
T4 chain: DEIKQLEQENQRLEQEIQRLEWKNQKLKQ
In words: two-hybrid library CCNG1.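 Also: natural log of median RNA to DNA barcode read ratio; higher means stronger binding.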

In another assay the target is T5, O9-bP.
T5 chain: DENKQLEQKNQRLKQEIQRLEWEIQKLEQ
In words: two-hybrid library CCNG1.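 Also: natural log of median RNA to DNA barcode read ratio; higher means stronger binding.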

In another assay the target is T6, 4H370-bA.
T6 chain: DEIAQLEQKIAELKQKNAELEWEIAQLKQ
In words: two-hybrid library CCNG1.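 Also: natural log of median RNA to DNA barcode read ratio; higher means stronger binding.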

In another assay the target is T7, 4H3782-bA.
T7 chain: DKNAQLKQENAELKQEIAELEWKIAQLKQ
In words: two-hybrid library CCNG1.

The target in the next assay is T8, 4H3843-bA.
T8 chain: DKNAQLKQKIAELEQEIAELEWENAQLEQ
In words: two-hybrid library CCNG1.

The next assay deals with T9, 4H4001-bA.
T9 chain: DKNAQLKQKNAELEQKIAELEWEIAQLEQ
In words: two-hybrid library CCNG1.

In the next assay the target is T10, 4H462-bA.
T10 chain: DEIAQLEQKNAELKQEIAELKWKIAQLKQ
The assay can be described thus: two-hybrid library CCNG1.

Another assay has as its target T11, 4H568-bA.
T11 chain: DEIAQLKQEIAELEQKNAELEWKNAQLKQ
In words: two-hybrid library CCNG1.

For a further assay, the target named is T12, 4H607-bA.
T12 chain: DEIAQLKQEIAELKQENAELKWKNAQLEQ
The assay can be described thus: two-hybrid library CCNG1.

The next assay concerns the target T13, 4H687-bA.
T13 chain: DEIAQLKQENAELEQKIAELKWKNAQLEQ
The assay can be described thus: two-hybrid library CCNG1.

The next assay addresses T14, 4H72-bA.
T14 chain: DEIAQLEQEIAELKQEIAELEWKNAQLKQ
In words: two-hybrid library CCNG1.

Another assay concerns the target T15, 4H797-bA.
T15 chain: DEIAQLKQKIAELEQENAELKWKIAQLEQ
The assay can be described thus: two-hybrid library CCNG1.

The next assay concerns the target T16, 4H883-bA.
T16 chain: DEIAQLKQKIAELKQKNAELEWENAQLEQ
The assay can be described thus: two-hybrid library CCNG1.

A further assay concerns the target T17, 4H918-bA.
T17 chain: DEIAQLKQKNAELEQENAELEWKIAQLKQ
The assay can be described thus: two-hybrid library CCNG1.

For a further assay, the target named is T18, 4H953-bA.
T18 chain: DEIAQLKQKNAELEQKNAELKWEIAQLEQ
In words: two-hybrid library CCNG1.

A further assay addresses T19, 4H967-bA.
T19 chain: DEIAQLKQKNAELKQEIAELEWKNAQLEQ
The assay can be described thus: two-hybrid library CCNG1.

The target in a further assay is T20, 4H2162-AA.
T20 chain: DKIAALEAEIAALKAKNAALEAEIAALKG
The assay can be described thus: two-hybrid library CCmax.

Another assay has as its target T21, 4H2253-AA.
T21 chain: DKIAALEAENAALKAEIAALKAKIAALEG
The assay can be described thus: two-hybrid library CCmax. The note with it: mean of both orientations.

The target of the next assay is T22, 4H2274-AA.
T22 chain: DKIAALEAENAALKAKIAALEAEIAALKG
The assay can be described thus: two-hybrid library CCmax. The note with it: mean of both orientations.

In the next assay the target is T23, 4H2330-AA.
T23 chain: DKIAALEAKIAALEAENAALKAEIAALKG
In words: two-hybrid library CCmax. The note with it: mean of both orientations.

A further assay addresses T24, 4H2389-AA.
T24 chain: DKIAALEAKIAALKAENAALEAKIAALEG
In words: two-hybrid library CCmax. The note with it: mean of both orientations.

Another assay deals with T25, 4H2438-AA.
T25 chain: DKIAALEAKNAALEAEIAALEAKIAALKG
The assay can be described thus: two-hybrid library CCmax. The note with it: mean of both orientations.

For the next assay, the target named is T26, 4H2473-AA.
T26 chain: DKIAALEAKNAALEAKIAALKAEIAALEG
The assay can be described thus: two-hybrid library CCmax. The note with it: mean of both orientations.

Another assay concerns the target T27, 4H2649-AA.
T27 chain: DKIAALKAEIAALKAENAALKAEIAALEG
In words: two-hybrid library CCmax. The note with it: mean of both orientations.

The target in the next assay is T28, 4H2698-AA.
T28 chain: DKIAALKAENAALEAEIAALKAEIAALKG
The assay can be described thus: two-hybrid library CCmax. The note with it: mean of both orientations.

For another assay, the target named is T29, 4H2725-AA.
T29 chain: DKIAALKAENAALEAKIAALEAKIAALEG
The assay can be described thus: two-hybrid library CCmax. The note with it: mean of both orientations.

The target in a further assay is T30, 4H2865-AA.
T30 chain: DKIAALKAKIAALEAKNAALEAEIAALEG
The assay can be described thus: two-hybrid library CCmax. The note with it: mean of both orientations.

Another assay concerns the target T31, 4H3009-AA.
T31 chain: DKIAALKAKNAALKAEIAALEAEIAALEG
In words: two-hybrid library CCmax. The note with it: mean of both orientations.

Another assay addresses T32, 4H3016-AA.
T32 chain: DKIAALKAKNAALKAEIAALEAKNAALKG
In words: two-hybrid library CCmax. The note with it: mean of both orientations.

For a further assay, the target named is T33, 4H310-AA.
T33 chain: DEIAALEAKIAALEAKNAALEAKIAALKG
The assay can be described thus: two-hybrid library CCmax. The note with it: mean of both orientations.

The next assay addresses T34, 4H3120-AA.
T34 chain: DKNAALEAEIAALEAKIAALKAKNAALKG
In words: two-hybrid library CCmax. The note with it: mean of both orientations.

The target in the next assay is T35, 4H3130-AA.
T35 chain: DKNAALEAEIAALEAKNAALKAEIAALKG
The assay can be described thus: two-hybrid library CCmax. The note with it: mean of both orientations.

The next assay deals with T36, 4H3165-AA.
T36 chain: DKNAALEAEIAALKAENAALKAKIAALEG
The assay can be described thus: two-hybrid library CCmax. The note with it: mean of both orientations.

In the next assay the target is T37, 4H3381-AA.
T37 chain: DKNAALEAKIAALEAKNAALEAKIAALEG
In words: two-hybrid library CCmax. The note with it: mean of both orientations.

The next assay has as its target T38, 4H3395-AA.
T38 chain: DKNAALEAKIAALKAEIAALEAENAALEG
In words: two-hybrid library CCmax. The note with it: mean of both orientations.

A further assay addresses T39, 4H3410-AA.
T39 chain: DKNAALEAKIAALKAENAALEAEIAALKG
In words: two-hybrid library CCmax. The note with it: mean of both orientations.

Another assay has as its target T40, 4H3590-AA.
T40 chain: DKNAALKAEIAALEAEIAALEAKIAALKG
The assay can be described thus: two-hybrid library CCmax. The note with it: mean of both orientations.

A further assay concerns the target T41, 4H3697-AA.
T41 chain: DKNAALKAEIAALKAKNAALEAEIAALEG
In words: two-hybrid library CCmax. The note with it: mean of both orientations.

In the next assay the target is T42, 4H3753-AA.
T42 chain: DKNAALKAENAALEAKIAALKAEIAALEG
The assay can be described thus: two-hybrid library CCmax. The note with it: mean of both orientations.

The next assay deals with T43, 4H3865-AA.
T43 chain: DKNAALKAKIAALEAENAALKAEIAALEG
In words: two-hybrid library CCmax. The note with it: mean of both orientations.

For a further assay, the target named is T44, 4H458-AA.
T44 chain: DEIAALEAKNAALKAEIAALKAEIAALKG
In words: two-hybrid library CCmax. The note with it: mean of both orientations.

The target in another assay is T45, 4H485-AA.
T45 chain: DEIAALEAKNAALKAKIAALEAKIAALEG
In words: two-hybrid library CCmax. The note with it: mean of both orientations.

The target of a further assay is T46, 4H536-AA.
T46 chain: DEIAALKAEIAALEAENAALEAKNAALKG
The assay can be described thus: two-hybrid library CCmax. The note with it: mean of both orientations.

A further assay concerns the target T47, 4H570-AA.
T47 chain: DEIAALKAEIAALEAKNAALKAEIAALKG
In words: two-hybrid library CCmax. The note with it: mean of both orientations.

A further assay has as its target T48, 4H629-AA.
T48 chain: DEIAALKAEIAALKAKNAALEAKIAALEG
The assay can be described thus: two-hybrid library CCmax. The note with it: mean of both orientations.

For a further assay, the target named is T49, 4H710-AA.
T49 chain: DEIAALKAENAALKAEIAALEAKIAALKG
In words: two-hybrid library CCmax. The note with it: mean of both orientations.

The next assay has as its target T50, 4H745-AA.
T50 chain: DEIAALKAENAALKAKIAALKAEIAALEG
The assay can be described thus: two-hybrid library CCmax. The note with it: mean of both orientations.

The next assay concerns the target T51, 4H797-AA.
T51 chain: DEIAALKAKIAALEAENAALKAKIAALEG
In words: two-hybrid library CCmax. The note with it: mean of both orientations.

The next assay concerns the target T52, 4H850-AA.
T52 chain: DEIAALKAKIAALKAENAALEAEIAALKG
In words: two-hybrid library CCmax. The note with it: mean of both orientations.

A further assay deals with T53, 4H891-AA.
T53 chain: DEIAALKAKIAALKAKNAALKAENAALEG
The assay can be described thus: two-hybrid library CCmax. The note with it: mean of both orientations.

The target of the next assay is T54, 4H909-AA.
T54 chain: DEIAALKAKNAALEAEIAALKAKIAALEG
The assay can be described thus: two-hybrid library CCmax. The note with it: mean of both orientations.

The target in a further assay is T55, 4H930-AA.
T55 chain: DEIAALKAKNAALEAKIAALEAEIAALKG
The assay can be described thus: two-hybrid library CCmax. The note with it: mean of both orientations.

The target in the next assay is T56, 4H94-AA.
T56 chain: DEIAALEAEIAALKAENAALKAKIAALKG
In words: two-hybrid library CCmax. The note with it: mean of both orientations.

Take DENKQLEQEIQRLEQKNQRLKWEIQKLEQ [O5-bP]: the interaction score in the assay with O5-bP is -1.57; in the assay with O6-bP, 2.35; with O7-bP, -1.28; with O8-bP it was -0.837; in the assay with O9-bP it was -1.33.
Regarding DEIAQLEQKIAELKQKNAELEWEIAQLKQ [4H370-bA], the interaction score was 1.12 with 4H370-bA; 0.864 with 4H3782-bA; -0.261 in the assay with 4H3843-bA; -0.375 with 4H4001-bA; 1.39 with 4H462-bA; 1.81 with 4H568-bA. For the same molecule, the interaction score was -0.647 with 4H607-bA; -0.346 in the assay with 4H687-bA; 0.634 with 4H72-bA; -0.315 with 4H797-bA; -0.545 in the assay with 4H883-bA; -0.552 with 4H918-bA. The interaction score with 4H953-bA is -1.39; with 4H967-bA, -0.217.
In the case of DKIAALEAEIAALKAKNAALEAEIAALKG [4H2162-AA], the interaction score with 4H2162-AA was 1.73; in the assay with 4H2253-AA it was -1.34; in the assay with 4H2274-AA, -0.925; in the assay with 4H2330-AA it was -1.04; with 4H2389-AA it was -0.128; with 4H2438-AA, -0.363. Besides, the interaction score in the assay with 4H2473-AA is -1.53; in the assay with 4H2649-AA it was -0.344; in the assay with 4H2698-AA, -1.79; with 4H2725-AA, -1.72; in the assay with 4H2865-AA, -0.262; in the assay with 4H3009-AA, -1.18. The interaction score in the assay with 4H3016-AA is -2.12; in the assay with 4H310-AA, -0.523; with 4H3120-AA, -1.44; with 4H3130-AA it was -0.375; in the assay with 4H3165-AA, -0.865; with 4H3381-AA it was -1.58. The interaction score is -0.899 with 4H3395-AA; -0.231 with 4H3410-AA; -0.841 with 4H3590-AA; -0.752 in the assay with 4H3697-AA; -1.93 in the assay with 4H3753-AA; -1.59 with 4H3865-AA. In addition, the interaction score is -0.816 with 4H458-AA; -1.06 with 4H485-AA; -1.2 with 4H536-AA; 0.778 with 4H570-AA; -1.01 with 4H629-AA; -1.09 in the assay with 4H710-AA. Besides, the interaction score in the assay with 4H745-AA is -0.859; in the assay with 4H797-AA, -1.49; with 4H850-AA it was 0.439; with 4H891-AA, -1.78; in the assay with 4H909-AA, -1.18; with 4H930-AA, -1.36. The interaction score with 4H94-AA was -0.0378.
With DKNKQLKQKIQRLKQENQRLEWKIQKLKQ [O6-bP], the interaction score with O6-bP was -0.702; with O7-bP, -0.618; in the assay with O8-bP, -2.38; with O9-bP it was -0.21.
